Experimental data taken from patent publication US20240301073A1 (SCHOLAR ROCK, published 2024).

How the values were obtained:
[1] = target: T1, human LTBP1-proTGFβ1 complex (human, UniProt Q14766 347-1721; P01137 30-390); experiment: SPR (Biacore)
T1 construct: also called hLTBP1-proTGFβ1

[2] = target: T2, human LTBP3-proTGFβ1 complex (human, UniProt Q9NS15 44-1303; P01137 30-390, limits assumed); experiment: SPR (Biacore)
T2 construct: also called hLTBP3-proTGFβ1

[3] = target: T1, human LTBP1-proTGFβ1 complex; experiment: SPR (Biacore), monovalent Fab
[4] = target: T2, human LTBP3-proTGFβ1 complex; experiment: SPR (Biacore), monovalent Fab
[5] = target: T3, human GARP-proTGFβ1 complex (human, UniProt Q14392 20-627; P01137 30-390, limits assumed); experiment: SPR (Biacore), monovalent Fab
T3 construct: also called hGARP-proTGFβ1
T3 sequence (Q14392 20-627 limits assumed, chain 1 of 2): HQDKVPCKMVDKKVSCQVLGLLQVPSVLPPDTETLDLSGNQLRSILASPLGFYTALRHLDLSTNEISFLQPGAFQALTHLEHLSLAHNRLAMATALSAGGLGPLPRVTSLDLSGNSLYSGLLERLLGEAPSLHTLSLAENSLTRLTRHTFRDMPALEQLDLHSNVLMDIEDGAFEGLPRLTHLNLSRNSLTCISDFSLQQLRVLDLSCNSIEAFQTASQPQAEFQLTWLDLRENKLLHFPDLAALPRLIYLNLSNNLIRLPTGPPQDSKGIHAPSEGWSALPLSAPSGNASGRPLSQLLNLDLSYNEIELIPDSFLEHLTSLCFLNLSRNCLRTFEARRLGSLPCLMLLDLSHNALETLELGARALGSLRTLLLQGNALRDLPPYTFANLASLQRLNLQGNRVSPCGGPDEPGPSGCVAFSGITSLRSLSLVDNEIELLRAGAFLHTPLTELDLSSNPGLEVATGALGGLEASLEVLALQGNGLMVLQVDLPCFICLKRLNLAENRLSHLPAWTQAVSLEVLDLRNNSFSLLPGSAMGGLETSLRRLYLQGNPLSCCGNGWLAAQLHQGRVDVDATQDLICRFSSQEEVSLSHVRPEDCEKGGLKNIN
T3 sequence (P01137 30-390 limits assumed, chain 2 of 2): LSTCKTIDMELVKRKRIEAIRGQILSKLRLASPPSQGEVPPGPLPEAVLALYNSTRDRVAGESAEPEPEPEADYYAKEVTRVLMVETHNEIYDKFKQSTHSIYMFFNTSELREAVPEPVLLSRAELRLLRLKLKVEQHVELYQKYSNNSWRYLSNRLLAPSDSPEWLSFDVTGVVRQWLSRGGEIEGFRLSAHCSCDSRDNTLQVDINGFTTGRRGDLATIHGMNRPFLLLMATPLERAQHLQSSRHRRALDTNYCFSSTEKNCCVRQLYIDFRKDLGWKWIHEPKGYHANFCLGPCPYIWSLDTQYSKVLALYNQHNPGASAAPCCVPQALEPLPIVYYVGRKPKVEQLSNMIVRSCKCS

[6] = target: T4, human LRRC33-proTGFβ1 complex (human, UniProt Q86YC3 19-650; P01137 30-390, limits assumed); experiment: SPR (Biacore), monovalent Fab
T4 construct: also called hLRRC33-proTGFβ1
T4 sequence (Q86YC3 19-650 limits assumed, chain 1 of 2): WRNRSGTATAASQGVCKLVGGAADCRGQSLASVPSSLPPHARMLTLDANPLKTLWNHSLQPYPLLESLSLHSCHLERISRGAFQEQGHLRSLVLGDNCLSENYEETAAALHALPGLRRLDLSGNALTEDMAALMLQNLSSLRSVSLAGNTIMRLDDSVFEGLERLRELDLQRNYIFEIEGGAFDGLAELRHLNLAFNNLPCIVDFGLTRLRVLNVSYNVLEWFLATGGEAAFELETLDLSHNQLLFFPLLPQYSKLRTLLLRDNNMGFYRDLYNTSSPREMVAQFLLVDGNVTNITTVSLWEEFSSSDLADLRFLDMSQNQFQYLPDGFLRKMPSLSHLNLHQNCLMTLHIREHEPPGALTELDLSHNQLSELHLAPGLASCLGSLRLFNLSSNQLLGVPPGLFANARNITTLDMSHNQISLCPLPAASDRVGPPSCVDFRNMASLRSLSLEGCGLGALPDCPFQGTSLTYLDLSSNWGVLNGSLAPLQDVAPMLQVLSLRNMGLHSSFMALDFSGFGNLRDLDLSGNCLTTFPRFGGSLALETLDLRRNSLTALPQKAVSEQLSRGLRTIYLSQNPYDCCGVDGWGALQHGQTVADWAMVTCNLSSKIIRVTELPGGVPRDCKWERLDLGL
T4 sequence (P01137 30-390 limits assumed, chain 2 of 2): as the sequence (P01137 30-390 limits assumed, chain 2 of 2) above

[7] = target: T1, human LTBP1-proTGFβ1 complex; experiment: monovalent Fab affinity (Biacore); repeats the 12th table
[8] = target: T2, human LTBP3-proTGFβ1 complex; experiment: as above
[9] = target: T3, human GARP-proTGFβ1 complex; experiment: as above
[10] = target: T4, human LRRC33-proTGFβ1 complex; experiment: as above
[11] = target: T1, human LTBP1-proTGFβ1 complex; experiment: binding profile; method not stated
[12] = target: T2, human LTBP3-proTGFβ1 complex; experiment: binding profile; method not stated

T2 sequence (Q9NS15 44-1303 limits assumed, chain 1 of 2): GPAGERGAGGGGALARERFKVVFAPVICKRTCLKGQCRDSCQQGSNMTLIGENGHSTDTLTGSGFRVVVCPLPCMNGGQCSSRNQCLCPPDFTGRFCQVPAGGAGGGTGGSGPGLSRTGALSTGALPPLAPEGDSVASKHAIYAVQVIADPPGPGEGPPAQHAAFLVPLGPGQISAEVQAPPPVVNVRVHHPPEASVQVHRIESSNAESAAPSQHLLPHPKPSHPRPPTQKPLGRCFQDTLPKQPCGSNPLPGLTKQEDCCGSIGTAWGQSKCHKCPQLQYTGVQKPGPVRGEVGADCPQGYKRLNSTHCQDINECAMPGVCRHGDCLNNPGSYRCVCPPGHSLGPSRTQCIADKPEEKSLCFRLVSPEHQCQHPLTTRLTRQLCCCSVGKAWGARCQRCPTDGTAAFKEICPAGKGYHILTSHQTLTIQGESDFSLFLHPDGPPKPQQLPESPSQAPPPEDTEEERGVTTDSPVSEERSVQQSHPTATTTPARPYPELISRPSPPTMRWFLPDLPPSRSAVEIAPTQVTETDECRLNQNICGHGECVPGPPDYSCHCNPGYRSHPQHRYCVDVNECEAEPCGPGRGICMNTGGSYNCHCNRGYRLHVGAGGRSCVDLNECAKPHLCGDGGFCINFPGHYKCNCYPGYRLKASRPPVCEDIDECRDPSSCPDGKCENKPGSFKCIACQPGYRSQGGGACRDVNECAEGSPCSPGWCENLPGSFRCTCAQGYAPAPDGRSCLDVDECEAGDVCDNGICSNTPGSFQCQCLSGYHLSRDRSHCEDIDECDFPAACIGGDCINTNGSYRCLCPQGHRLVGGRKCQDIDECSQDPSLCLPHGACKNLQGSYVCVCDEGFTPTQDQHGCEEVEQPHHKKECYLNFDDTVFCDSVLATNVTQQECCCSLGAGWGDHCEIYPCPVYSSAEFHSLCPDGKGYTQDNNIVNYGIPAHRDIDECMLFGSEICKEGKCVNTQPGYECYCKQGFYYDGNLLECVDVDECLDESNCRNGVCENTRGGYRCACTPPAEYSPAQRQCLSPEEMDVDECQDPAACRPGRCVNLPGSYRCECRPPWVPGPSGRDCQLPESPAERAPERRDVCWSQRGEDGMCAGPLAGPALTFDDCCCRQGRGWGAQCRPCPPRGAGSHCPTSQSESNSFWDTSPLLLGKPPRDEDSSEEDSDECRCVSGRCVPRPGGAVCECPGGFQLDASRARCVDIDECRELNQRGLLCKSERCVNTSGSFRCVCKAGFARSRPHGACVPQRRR
T2 sequence (P01137 30-390 limits assumed, chain 2 of 2): as the sequence (P01137 30-390 limits assumed, chain 2 of 2) above
T1 sequence (Q14766 347-1721 limits assumed, chain 1 of 2): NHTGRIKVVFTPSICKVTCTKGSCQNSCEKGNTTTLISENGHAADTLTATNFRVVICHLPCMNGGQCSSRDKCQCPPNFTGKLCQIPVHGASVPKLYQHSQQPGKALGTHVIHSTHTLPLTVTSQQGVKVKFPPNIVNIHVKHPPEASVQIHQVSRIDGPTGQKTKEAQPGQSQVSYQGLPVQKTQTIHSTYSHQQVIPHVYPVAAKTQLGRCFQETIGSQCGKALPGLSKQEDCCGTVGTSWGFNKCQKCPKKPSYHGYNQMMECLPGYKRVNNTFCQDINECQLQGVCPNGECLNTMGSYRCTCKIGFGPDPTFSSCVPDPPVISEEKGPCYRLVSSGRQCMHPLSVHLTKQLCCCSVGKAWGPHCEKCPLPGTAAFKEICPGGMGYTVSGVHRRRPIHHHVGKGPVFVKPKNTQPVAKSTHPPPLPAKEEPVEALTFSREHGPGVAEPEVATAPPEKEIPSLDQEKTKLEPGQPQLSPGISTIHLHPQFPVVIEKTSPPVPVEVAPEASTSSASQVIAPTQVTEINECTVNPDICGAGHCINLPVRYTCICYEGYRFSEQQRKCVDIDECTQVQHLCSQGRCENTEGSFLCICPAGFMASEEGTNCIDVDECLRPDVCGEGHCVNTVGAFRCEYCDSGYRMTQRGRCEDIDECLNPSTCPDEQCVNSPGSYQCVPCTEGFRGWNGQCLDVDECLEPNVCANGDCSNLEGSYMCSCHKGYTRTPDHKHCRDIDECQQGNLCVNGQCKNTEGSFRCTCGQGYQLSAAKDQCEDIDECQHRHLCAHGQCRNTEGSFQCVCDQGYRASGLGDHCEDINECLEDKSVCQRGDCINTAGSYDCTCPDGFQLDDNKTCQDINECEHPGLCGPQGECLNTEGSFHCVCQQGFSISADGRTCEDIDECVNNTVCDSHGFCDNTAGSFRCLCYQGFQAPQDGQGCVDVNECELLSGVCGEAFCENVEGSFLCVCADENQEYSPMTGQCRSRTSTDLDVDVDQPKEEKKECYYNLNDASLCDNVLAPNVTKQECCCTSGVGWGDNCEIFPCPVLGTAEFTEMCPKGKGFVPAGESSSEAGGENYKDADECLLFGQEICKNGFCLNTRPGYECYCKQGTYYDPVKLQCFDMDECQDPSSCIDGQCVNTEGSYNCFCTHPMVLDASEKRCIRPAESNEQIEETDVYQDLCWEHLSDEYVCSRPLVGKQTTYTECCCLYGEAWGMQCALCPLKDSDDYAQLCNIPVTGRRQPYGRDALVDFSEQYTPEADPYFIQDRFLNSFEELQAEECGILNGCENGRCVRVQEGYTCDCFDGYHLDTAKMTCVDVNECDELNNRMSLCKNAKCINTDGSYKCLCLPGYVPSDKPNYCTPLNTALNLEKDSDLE
T1 sequence (P01137 30-390 limits assumed, chain 2 of 2): as the sequence (P01137 30-390 limits assumed, chain 2 of 2) above

| fold binding selectivity compared to GARP or LRRC33 complexes [1] | fold binding selectivity compared to GARP or LRRC33 complexes [2] | Kd [3] | koff [3] | kon [3] | Kd [4] | koff [4] | kon [4] | Kd [5] | koff [5] | kon [5] | Kd [6] | koff [6] | kon [6] | Kd [7] | Kd [8] | Kd [9] | Kd [10] | fold specificity over GARP and LRRC33 complexes [11] | fold specificity over GARP and LRRC33 complexes [12] | Binder |
| --- | --- | --- | --- | --- | --- | --- | --- | --- | --- | --- | --- | --- | --- | --- | --- | --- | --- | --- | --- | --- |
| ~100 fold | ~100 fold | 0.38 nM | 0.000111 s⁻¹ | 293000 M⁻¹ s⁻¹ | 0.57 nM | 0.000109 s⁻¹ | 191000 M⁻¹ s⁻¹ | 145 nM | 0.006 s⁻¹ | 41500 M⁻¹ s⁻¹ | 134 nM | 0.00271 s⁻¹ | 20200 M⁻¹ s⁻¹ | 0.38 nM | 0.57 nM | 145 nM | 134 nM | – | – | Ab42 human Fab (Fab, V domains shown, Fab of Ab42; also called Ab42 Fab; Ab42 (monovalent, Fab)) VH: QVQLVESGGGVVQPGRSLRLSCAASGFTFRSYVMHWVRQAPGKGLEWVAVISHEGSLKYYADSVKGRFTISRDNSKNTLYLQMNSLRAEDTAVYYCARPRIAARRGGFGYWGQGTLVTVSS VL: NFMLTQPHSVSESPGKTVTISCTRSSGNIDNNYVQWYQQRPGSSPTTVIYEDNQRPSGVPDRFSGSIDSSSNSASLTISGLKTEDEADYYCQSYDYDTQGVVFGGGTKLTVL |
| – | – | – | – | – | – | – | – | – | – | – | – | – | – | – | – | – | – | > 100 fold | > 100 fold | Ab42 (antibody, V domains shown, also called SR-AB42; SR-Ab42) VH: QVQLVESGGGVVQPGRSLRLSCAASGFTFRSYVMHWVRQAPGKGLEWVAVISHEGSLKYYADSVKGRFTISRDNSKNTLYLQMNSLRAEDTAVYYCARPRIAARRGGFGYWGQGTLVTVSS VL: NFMLTQPHSVSESPGKTVTISCTRSSGNIDNNYVQWYQQRPGSSPTTVIYEDNQRPSGVPDRFSGSIDSSSNSASLTISGLKTEDEADYYCQSYDYDTQGVVFGGGTKLTVL |
